Laboratory results taken from publication PMC11615386, “Phosphorylation-mediated conformational change regulates human SLFN11” (Nature Communications, 2024).

T1: SLFN11 (Homo sapiens, UniProt Q7Z7L1, S753D)
T1 construct: S753D monomer, 104 kDa, model residues 7-897
T1 sequence (Q7Z7L1 1-901 S753D): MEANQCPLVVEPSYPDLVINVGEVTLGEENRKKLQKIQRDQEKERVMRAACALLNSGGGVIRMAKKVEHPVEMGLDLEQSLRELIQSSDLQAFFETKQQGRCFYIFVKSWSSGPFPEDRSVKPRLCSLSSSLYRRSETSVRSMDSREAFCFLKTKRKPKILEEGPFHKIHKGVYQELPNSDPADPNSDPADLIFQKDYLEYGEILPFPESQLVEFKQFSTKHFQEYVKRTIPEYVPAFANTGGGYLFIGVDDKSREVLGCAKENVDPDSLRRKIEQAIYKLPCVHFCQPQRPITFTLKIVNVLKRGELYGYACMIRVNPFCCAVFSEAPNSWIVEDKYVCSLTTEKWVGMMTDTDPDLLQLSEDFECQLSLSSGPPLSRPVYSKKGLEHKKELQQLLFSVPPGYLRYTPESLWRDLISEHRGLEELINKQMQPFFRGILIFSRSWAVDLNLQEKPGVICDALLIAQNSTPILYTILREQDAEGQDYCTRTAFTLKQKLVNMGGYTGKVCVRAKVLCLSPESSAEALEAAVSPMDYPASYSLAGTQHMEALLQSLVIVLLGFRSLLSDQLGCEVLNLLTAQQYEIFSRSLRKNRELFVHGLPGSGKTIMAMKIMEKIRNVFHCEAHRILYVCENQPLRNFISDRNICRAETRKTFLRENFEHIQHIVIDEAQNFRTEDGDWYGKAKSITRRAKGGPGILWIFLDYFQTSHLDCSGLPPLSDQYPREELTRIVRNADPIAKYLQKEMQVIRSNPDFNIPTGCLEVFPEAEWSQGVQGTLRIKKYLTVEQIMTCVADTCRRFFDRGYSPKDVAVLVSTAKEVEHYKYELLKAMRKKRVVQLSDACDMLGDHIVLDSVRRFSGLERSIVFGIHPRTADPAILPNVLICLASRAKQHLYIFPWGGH


Key:
SLFN11 = molecular target: T1, SLFN11; test: nanoDSF thermal shift (Tycho NT.[…]); assay type: binding; settings: 1 mM nucleotide, 300 nM protein, 25 mM Tris pH 7.5, 60 mM NaCl, 2 mM MgCl2
[1] = molecular target: the molecule itself; test: mass photometry; 50 nM SLFN11 in 25 mM Tris pH 7.5, 2 mM MgCl2, 1 mM DTT with variable concentrations of NaCl (80 mM NaCl in Fig. 4d, e); dimer to monomers

Row | Molecule | inflection temperature shift (SLFN11) | stoichiometry N [1]
1 | Nc1ncnc2c1ncn2[C@@H]1O[C@H](COP(=O)(O)OP(=O)(O)OP(=O)(O)O)[C@@H](O)[C@H]1O [ATP] | ATP and ATPγS caused a large increase in the inflection temperatures of SLFN11^S753D | –
2 | Human Schlafen 11 (SLFN11), wild type (enzyme, Schlafen 11 (SLFN11), human; N-terminal nuclease domain, linker domain and C-terminal helicase domain; also called SLFN11^wt) MEANQCPLVVEPSYPDLVINVGEVTLGEENRKKLQKIQRDQEKERVMRAACALLNSGGGVIRMAKKVEHPVEMGLDLEQSLRELIQSSDLQAFFETKQQGRCFYIFVKSWSSGPFPEDRSVKPRLCSLSSSLYRRSETSVRSMDSREAFCFLKTKRKPKILEEGPFHKIHKGVYQELPNSDPADPNSDPADLIFQKDYLEYGEILPFPESQLVEFKQFSTKHFQEYVKRTIPEYVPAFANTGGGYLFIGVDDKSREVLGCAKENVDPDSLRRKIEQAIYKLPCVHFCQPQRPITFTLKIVNVLKRGELYGYACMIRVNPFCCAVFSEAPNSWIVEDKYVCSLTTEKWVGMMTDTDPDLLQLSEDFECQLSLSSGPPLSRPVYSKKGLEHKKELQQLLFSVPPGYLRYTPESLWRDLISEHRGLEELINKQMQPFFRGILIFSRSWAVDLNLQEKPGVICDALLIAQNSTPILYTILREQDAEGQDYCTRTAFTLKQKLVNMGGYTGKVCVRAKVLCLSPESSAEALEAAVSPMDYPASYSLAGTQHMEALLQSLVIVLLGFRSLLSDQLGCEVLNLLTAQQYEIFSRSLRKNRELFVHGLPGSGKTIMAMKIMEKIRNVFHCEAHRILYVCENQPLRNFISDRNICRAETRKTFLRENFEHIQHIVIDEAQNFRTEDGDWYGKAKSITRRAKGGPGILWIFLDYFQTSHLDCSGLPPLSDQYPREELTRIVRNADPIAKYLQKEMQVIRSNPSFNIPTGCLEVFPEAEWSQGVQGTLRIKKYLTVEQIMTCVADTCRRFFDRGYSPKDVAVLVSTAKEVEHYKYELLKAMRKKRVVQLSDACDMLGDHIVLDSVRRFSGLERSIVFGIHPRTADPAILPNVLICLASRAKQHLYIFPWGGH | – | 2
3 | SLFN11 phosphomimetic mutant S219D (enzyme, human, Schlafen 11 (SLFN11), human, with the phosphomimetic mutation S219D in the nuclease domain; Made by quick change PCR from the wild-type construct; also called SLFN11^S219D) MEANQCPLVVEPSYPDLVINVGEVTLGEENRKKLQKIQRDQEKERVMRAACALLNSGGGVIRMAKKVEHPVEMGLDLEQSLRELIQSSDLQAFFETKQQGRCFYIFVKSWSSGPFPEDRSVKPRLCSLSSSLYRRSETSVRSMDSREAFCFLKTKRKPKILEEGPFHKIHKGVYQELPNSDPADPNSDPADLIFQKDYLEYGEILPFPESQLVEFKQFDTKHFQEYVKRTIPEYVPAFANTGGGYLFIGVDDKSREVLGCAKENVDPDSLRRKIEQAIYKLPCVHFCQPQRPITFTLKIVNVLKRGELYGYACMIRVNPFCCAVFSEAPNSWIVEDKYVCSLTTEKWVGMMTDTDPDLLQLSEDFECQLSLSSGPPLSRPVYSKKGLEHKKELQQLLFSVPPGYLRYTPESLWRDLISEHRGLEELINKQMQPFFRGILIFSRSWAVDLNLQEKPGVICDALLIAQNSTPILYTILREQDAEGQDYCTRTAFTLKQKLVNMGGYTGKVCVRAKVLCLSPESSAEALEAAVSPMDYPASYSLAGTQHMEALLQSLVIVLLGFRSLLSDQLGCEVLNLLTAQQYEIFSRSLRKNRELFVHGLPGSGKTIMAMKIMEKIRNVFHCEAHRILYVCENQPLRNFISDRNICRAETRKTFLRENFEHIQHIVIDEAQNFRTEDGDWYGKAKSITRRAKGGPGILWIFLDYFQTSHLDCSGLPPLSDQYPREELTRIVRNADPIAKYLQKEMQVIRSNPSFNIPTGCLEVFPEAEWSQGVQGTLRIKKYLTVEQIMTCVADTCRRFFDRGYSPKDVAVLVSTAKEVEHYKYELLKAMRKKRVVQLSDACDMLGDHIVLDSVRRFSGLERSIVFGIHPRTADPAILPNVLICLASRAKQHLYIFPWGGH | – | 2
4 | SLFN11 phosphomimetic mutant T230D (enzyme, human, Schlafen 11 (SLFN11), human, with the phosphomimetic mutation T230D in the nuclease domain; Made by quick change PCR from the wild-type construct; also called SLFN11^T230D) MEANQCPLVVEPSYPDLVINVGEVTLGEENRKKLQKIQRDQEKERVMRAACALLNSGGGVIRMAKKVEHPVEMGLDLEQSLRELIQSSDLQAFFETKQQGRCFYIFVKSWSSGPFPEDRSVKPRLCSLSSSLYRRSETSVRSMDSREAFCFLKTKRKPKILEEGPFHKIHKGVYQELPNSDPADPNSDPADLIFQKDYLEYGEILPFPESQLVEFKQFSTKHFQEYVKRDIPEYVPAFANTGGGYLFIGVDDKSREVLGCAKENVDPDSLRRKIEQAIYKLPCVHFCQPQRPITFTLKIVNVLKRGELYGYACMIRVNPFCCAVFSEAPNSWIVEDKYVCSLTTEKWVGMMTDTDPDLLQLSEDFECQLSLSSGPPLSRPVYSKKGLEHKKELQQLLFSVPPGYLRYTPESLWRDLISEHRGLEELINKQMQPFFRGILIFSRSWAVDLNLQEKPGVICDALLIAQNSTPILYTILREQDAEGQDYCTRTAFTLKQKLVNMGGYTGKVCVRAKVLCLSPESSAEALEAAVSPMDYPASYSLAGTQHMEALLQSLVIVLLGFRSLLSDQLGCEVLNLLTAQQYEIFSRSLRKNRELFVHGLPGSGKTIMAMKIMEKIRNVFHCEAHRILYVCENQPLRNFISDRNICRAETRKTFLRENFEHIQHIVIDEAQNFRTEDGDWYGKAKSITRRAKGGPGILWIFLDYFQTSHLDCSGLPPLSDQYPREELTRIVRNADPIAKYLQKEMQVIRSNPSFNIPTGCLEVFPEAEWSQGVQGTLRIKKYLTVEQIMTCVADTCRRFFDRGYSPKDVAVLVSTAKEVEHYKYELLKAMRKKRVVQLSDACDMLGDHIVLDSVRRFSGLERSIVFGIHPRTADPAILPNVLICLASRAKQHLYIFPWGGH | – | 2
